From the supplement of paper PMC9112550, “Optimization of the antimicrobial peptide Bac7 by deep mutational scanning” (BMC Biology, 2022)

Test system: Escherichia coli TOP10
Test: shrunken log2 fold change of peptide-encoding DNA abundance (4.5 h post-induction vs induction); higher = less antimicrobial activity (less host growth inhibition)
Details: time post-induction: 4.5 h; library: site-saturation at positions 5, 18, 19, 20
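Further: peptides expressed intracellularly from a pBAD plasmid library in pooled LB shake-flask culture, induced with 0.3% L-arabinose, DNA abundance read by NGS, three biological replicates, DESeq2 with apeglm shrinkage.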

Point of comparison: RRIRCRPPRLPRPRPRPGRHPRP, “shrunken log2 fold change” value 0.105. Against it:
- RRIRGRPPRLPRPRPRPCDTPRP — within 0.2 log units, 0.13
- RRIRKRPPRLPRPRPRPEDMPRP — within 0.2 log units, 0.0387
- RRIRNRPPRLPRPRPRPQDWPRP — lower, -0.133
- RRIRERPPRLPRPRPRPMSEPRP — within 0.2 log units, 0.0552
- RRIRDRPPRLPRPRPRPNYSPRP — lower, -0.792
- RRIRYRPPRLPRPRPRPIHLPRP — lower, -1.26
- RRIRVRPPRLPRPRPRPSKQPRP — lower, -0.201
- RRIRHRPPRLPRPRPRPCVPPRP — within 0.2 log units, -0.00981
- RRIRTRPPRLPRPRPRPWEDPRP — within 0.2 log units, 0.0242
- RRIRRRPPRLPRPRPRPQWRPRP — higher, 0.364
- RRIRARPPRLPRPRPRPEMNPRP — higher, 0.655
- RRIRCRPPRLPRPRPRPYNIPRP — lower, -1.27
- RRIRIRPPRLPRPRPRPGSAPRP — within 0.2 log units, 0.267
- RRIRERPPRLPRPRPRPDFKPRP — within 0.2 log units, 0.0659
- RRIRSRPPRLPRPRPRPPGAPRP — higher, 0.61
- RRIRGRPPRLPRPRPRPFSQPRP — within 0.2 log units, 0.194
- RRIRLRPPRLPRPRPRPHICPRP — lower, -0.162
- RRIRDRPPRLPRPRPRPPRHPRP — higher, 0.377
- RRIRRRPPRLPRPRPRPKNQPRP — within 0.2 log units, 0.173
- RRIRPRPPRLPRPRPRPPHGPRP — higher, 0.374
- RRIRMRPPRLPRPRPRPGPEPRP — higher, 0.797
- RRIRLRPPRLPRPRPRPLQKPRP — within 0.2 log units, 0.141
- RRIRIRPPRLPRPRPRPRLEPRP — within 0.2 log units, 0.117
- RRIRARPPRLPRPRPRPQMWPRP — within 0.2 log units, 0.102
- RRIRCRPPRLPRPRPRPYMTPRP — lower, -1.06
- RRIRQRPPRLPRPRPRPHAYPRP — lower, -0.352
- RRIRDRPPRLPRPRPRPVNVPRP — lower, -0.96
- RRIRIRPPRLPRPRPRPVEKPRP — lower, -0.126
- RRIRFRPPRLPRPRPRPKQGPRP — within 0.2 log units, -0.00975
- RRIRNRPPRLPRPRPRPFSTPRP — lower, -0.226
- RRIRMRPPRLPRPRPRPAAWPRP — within 0.2 log units, 0.11
- RRIRFRPPRLPRPRPRPPFHPRP — lower, -0.231
- RRIRGRPPRLPRPRPRPCTIPRP — within 0.2 log units, 0.166
- RRIRERPPRLPRPRPRPTSCPRP — lower, -0.178
- RRIRLRPPRLPRPRPRPRIFPRP — lower, -0.263
- RRIRARPPRLPRPRPRPYDRPRP — within 0.2 log units, -0.01
- RRIRLRPPRLPRPRPRPGWTPRP — within 0.2 log units, 0.208
- RRIRDRPPRLPRPRPRPFYTPRP — lower, -0.687
- RRIRHRPPRLPRPRPRPCYTPRP — within 0.2 log units, 0.0618
- RRIRMRPPRLPRPRPRPREQPRP — within 0.2 log units, 0.0355
- RRIRARPPRLPRPRPRPNVPPRP — within 0.2 log units, 0.0126
- RRIRTRPPRLPRPRPRPIAFPRP — within 0.2 log units, -0.0138
- RRIRWRPPRLPRPRPRPGGTPRP — within 0.2 log units, 0.209
- RRIRARPPRLPRPRPRPPAHPRP — higher, 0.912
- RRIRMRPPRLPRPRPRPSQGPRP — within 0.2 log units, 0.179
- RRIRGRPPRLPRPRPRPGHQPRP — within 0.2 log units, 0.124
- RRIRIRPPRLPRPRPRPYLRPRP — within 0.2 log units, -0.086
- RRIRTRPPRLPRPRPRPRPSPRP — higher, 0.703
- RRIRDRPPRLPRPRPRPPCPPRP — within 0.2 log units, 0.173
- RRIRNRPPRLPRPRPRPYPYPRP — lower, -0.242
- RRIRRRPPRLPRPRPRPNMKPRP — within 0.2 log units, 0.069
- RRIRKRPPRLPRPRPRPKKRPRP — higher, 1.09
- RRIRKRPPRLPRPRPRPGHDPRP — within 0.2 log units, 0.141
- RRIRKRPPRLPRPRPRPNSNPRP — lower, -0.115
- RRIRPRPPRLPRPRPRPWRPPRP — within 0.2 log units, 0.12
- RRIRVRPPRLPRPRPRPTCIPRP — lower, -0.372
- RRIRKRPPRLPRPRPRPSSGPRP — within 0.2 log units, -0.0282
- RRIRMRPPRLPRPRPRPQWLPRP — higher, 0.351
- RRIRCRPPRLPRPRPRPKWMPRP — higher, 0.361
- RRIRYRPPRLPRPRPRPYQNPRP — lower, -0.467
- RRIRQRPPRLPRPRPRPVGAPRP — higher, 0.489
- RRIRPRPPRLPRPRPRPIQPPRP — within 0.2 log units, -0.0445
- RRIRTRPPRLPRPRPRPYIDPRP — lower, -0.132
- RRIRGRPPRLPRPRPRPAIQPRP — higher, 0.438
- RRIRKRPPRLPRPRPRPDYPPRP — within 0.2 log units, -0.0226
- RRIRFRPPRLPRPRPRPVEGPRP — within 0.2 log units, -0.0615
- RRIRWRPPRLPRPRPRPTQTPRP — higher, 0.551
- RRIRFRPPRLPRPRPRPCGQPRP — within 0.2 log units, 0.151
- RRIRARPPRLPRPRPRPFESPRP — within 0.2 log units, 0.0991
- RRIRSRPPRLPRPRPRPNYPPRP — lower, -0.195
- RRIRDRPPRLPRPRPRPHYWPRP — lower, -0.282
- RRIRRRPPRLPRPRPRPFNDPRP — within 0.2 log units, 0.0417
- RRIRSRPPRLPRPRPRPVTAPRP — within 0.2 log units, -0.0769
- RRIRVRPPRLPRPRPRPAGIPRP — within 0.2 log units, 0.165
- RRIRTRPPRLPRPRPRPMLDPRP — within 0.2 log units, -0.0137
- RRIRSRPPRLPRPRPRPVIDPRP — lower, -0.26
- RRIRNRPPRLPRPRPRPKEPPRP — within 0.2 log units, 0.0169
- RRIRNRPPRLPRPRPRPCPQPRP — within 0.2 log units, 0.0087
- RRIRPRPPRLPRPRPRPRQYPRP — lower, -0.257
- RRIRARPPRLPRPRPRPEVMPRP — within 0.2 log units, 0.28
- RRIRHRPPRLPRPRPRPQQTPRP — within 0.2 log units, 0.0173
- RRIRFRPPRLPRPRPRPEMHPRP — lower, -0.195
- RRIRQRPPRLPRPRPRPCTHPRP — lower, -0.502
- RRIRPRPPRLPRPRPRPIGFPRP — within 0.2 log units, 0.2
- RRIRYRPPRLPRPRPRPDCAPRP — lower, -0.218
- RRIRNRPPRLPRPRPRPSQGPRP — lower, -0.154
- RRIRVRPPRLPRPRPRPCTDPRP — lower, -0.46
- RRIRKRPPRLPRPRPRPPGIPRP — within 0.2 log units, 0.279
- RRIRWRPPRLPRPRPRPQGDPRP — within 0.2 log units, -0.0316
- RRIRARPPRLPRPRPRPKKQPRP — within 0.2 log units, 0.0491
- RRIRRRPPRLPRPRPRPPKWPRP — higher, 0.628
- RRIRPRPPRLPRPRPRPSITPRP — lower, -0.401
- RRIRQRPPRLPRPRPRPTHLPRP — within 0.2 log units, 0.205
- RRIRQRPPRLPRPRPRPNPEPRP — within 0.2 log units, 0.0266
- RRIRLRPPRLPRPRPRPMFDPRP — lower, -0.249
- RRIRKRPPRLPRPRPRPPEPPRP — higher, 0.842
- RRIRERPPRLPRPRPRPSWIPRP — within 0.2 log units, -0.0746
- RRIRMRPPRLPRPRPRPIPIPRP — within 0.2 log units, 0.138
- RRIRHRPPRLPRPRPRPPDPPRP — higher, 0.832
- RRIRHRPPRLPRPRPRPYNEPRP — within 0.2 log units, 0.0187
- RRIRNRPPRLPRPRPRPCDRPRP — within 0.2 log units, 0.0883
- RRIRDRPPRLPRPRPRPGVEPRP — within 0.2 log units, 0.022
- RRIRGRPPRLPRPRPRPDDEPRP — higher, 1.27
- RRIRRRPPRLPRPRPRPLCAPRP — higher, 0.646
- RRIRFRPPRLPRPRPRPTCIPRP — lower, -0.13
- RRIRHRPPRLPRPRPRPVKIPRP — within 0.2 log units, -0.0352
- RRIRWRPPRLPRPRPRPKFDPRP — within 0.2 log units, -0.0572
- RRIRDRPPRLPRPRPRPPQPPRP — higher, 0.387
